Patent publication US11198713B2, “Agents modulating beta-catenin functions and methods thereof” (FOG PHARMACEUTICALS, INC., priority 2017, dated 2021)
Numbered stars: 1 amine (or outer) side, 2 acyl side, 3 side chain; on linkers, the order of the positions; unused ones are H or OH. Bridge positions count the residues as written; N and C are the ends. Square brackets hold non-standard residues; d marks the D form. Primed or numbered codes have the meaning given here. MB(4) = Monomer B (PyrS), N-Alloc pyrrolidine stapling residue, (S)-3-amino-1-(allyloxycarbonyl)pyrrolidine-3-carboxylic acid, C=CCOC(=O)N1CC[C@@](N[*:1])(C(=O)[*:2])C1; R4″ = stapling residue, (R)-2-(3-butenyl)alanine (drawn only), C=CCC[C@@](C)(N[*:1])C(=O)[*:2]; MB(3) = Monomer B = PyrS, pyrrolidine stapling residue with allyl carbamate; MI = Monomer I = ReN, acyclic amine-bearing olefin stapling residue; R7 = (R)-2-(6-heptenyl)alanine, C=CCCCCC[C@@](C)(N[*:1])C(=O)[*:2]; R6 = (R)-2-(5-hexenyl)alanine, C=CCCCC[C@@](C)(N[*:1])C(=O)[*:2]; S6 = (S)-2-(5-hexenyl)alanine, C=CCCCC[C@](C)(N[*:1])C(=O)[*:2]; MB(5) = Monomer B (PyrS), N-Alloc pyrrolidine stapling residue; R4 = (R)-2-(3-butenyl)alanine, C=CCC[C@@](C)(N[*:1])C(=O)[*:2]; MG = Monomer G = RdN, acyclic alkyl-N(Alloc) stapling residue; MC = Monomer C = PyrR, Alloc-pyrrolidine stapling residue; MA = Monomer A (Az), N-Alloc azetidine stapling residue; S7 = C[C@@](CCCCCC=[*:3])(N[*:1])C(=O)[*:2]; R8 = C=CCCCCCC[C@@](C)(N)C(=O)O; αMeL = CC(C)C[C@](C)(N)C(=O)O; R5 = C=CCCC[C@@](C)(N)C(=O)O; αMeV = CC(C)[C@](C)(N)C(=O)O; S5 = C=CCCC[C@](C)(N)C(=O)O; MB(7) = not defined here; Aib = CC(C)(N)C(=O)O

T1: full-length beta-catenin (UniProt P35222 2-781, limits assumed)
T1 construct: mature; also called full-length ß-Catenin; β-catenin
T1 sequence (looked up): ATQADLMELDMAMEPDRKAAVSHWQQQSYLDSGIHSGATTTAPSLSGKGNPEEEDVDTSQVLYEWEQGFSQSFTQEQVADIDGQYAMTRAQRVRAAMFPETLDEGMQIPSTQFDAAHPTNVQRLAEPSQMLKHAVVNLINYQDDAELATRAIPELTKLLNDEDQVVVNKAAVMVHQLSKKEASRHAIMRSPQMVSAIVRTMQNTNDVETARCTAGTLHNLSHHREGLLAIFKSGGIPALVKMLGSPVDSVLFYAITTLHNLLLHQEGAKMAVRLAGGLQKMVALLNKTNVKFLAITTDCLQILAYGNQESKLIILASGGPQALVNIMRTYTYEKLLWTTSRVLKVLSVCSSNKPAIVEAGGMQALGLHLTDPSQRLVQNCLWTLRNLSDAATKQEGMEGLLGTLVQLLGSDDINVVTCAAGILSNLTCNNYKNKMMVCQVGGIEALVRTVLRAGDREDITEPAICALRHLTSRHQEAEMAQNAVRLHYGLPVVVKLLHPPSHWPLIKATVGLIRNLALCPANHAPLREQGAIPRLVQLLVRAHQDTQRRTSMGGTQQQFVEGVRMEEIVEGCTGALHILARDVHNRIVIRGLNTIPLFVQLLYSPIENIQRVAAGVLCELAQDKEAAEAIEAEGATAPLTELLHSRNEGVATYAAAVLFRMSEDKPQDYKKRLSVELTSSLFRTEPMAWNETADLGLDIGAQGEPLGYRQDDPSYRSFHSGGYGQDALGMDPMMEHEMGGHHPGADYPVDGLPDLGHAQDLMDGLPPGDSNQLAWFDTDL


Tests used:
full-length beta-catenin [1] = molecular target: T1, full-length beta-catenin; test: competition FP, grade of FP EC50 (++: 100-500 nM)
Description: (§1) In some embodiments, a competition fluorescence polarization assay is used to assess binding of provided compounds to beta-catenin. In an exemplary procedure, solutions of provided compounds, e.g., provided stapled peptides, were prepared in a buffer (e.g., 50 mM Tris pH 8.0, 250 mM NaCl, 2% glycerol, 0.5 mM EDTA, 0.02% w/v sodium azide) using a 3-fold serial dilution from 5 µM. Probe solution (15 nM full-length ß-Catenin, 20 nM FITC labeled peptide in buffer) was prepared and incubated for a period of time, e.g., 5 minutes, and the a volume, e.g., 40 µL per well plated in suitable plate, e.g., a black polystyrene 384-well plate (Corning). Equal volume of the serial diluted peptide was added to the plate and incubated protected from light for 15 minutes prior to read. Reads were performed on a Spectramax M5 (Molecular Devices) in duplicate. Suitable probe was FITC-PEG1-PQ-S5-ILD-S5-HVRRVWR (SEQ ID NO: 1) (hydrocarbon staple formed by two S5 via olefin metathesis) and/or FITC-bA-PQ-S5-ILD-S5-HVRRVWR (SEQ ID NO: 3) (hydrocarbon staple formed by two S5 via olefin metathesis). […] Another peptide, FPO217c (Ac-AR_8ILDAHIM$B5$RVW (SEQ ID NO: 280), with N-terminal proline removed and valine replaced with isoleucine compared to FP0025c) was prepared.

full-length beta-catenin [2] = molecular target: T1, full-length beta-catenin; test: competition FP
Description: as §1

full-length beta-catenin [3] = molecular target: T1, full-length beta-catenin; test: competition FP, grade of FP EC50 (+: 500-5000 nM)
Description: as §1

full-length beta-catenin [4] = molecular target: T1, full-length beta-catenin; test: competition FP, grade of FP EC50 (+++: <=100 nM)
Description: as §1

| Binder | FP EC50 (full-length beta-catenin [1]) | EC50 (full-length beta-catenin [2]) | FP EC50 (full-length beta-catenin [3]) | FP EC50 (full-length beta-catenin [4]) |
| --- | --- | --- | --- | --- |
| Ac-A[R8]ILDAHI[MB(5)]RV[dW]-NH2 (staple 2-9) [FP0630c] | 100 to 500 nM | – | – | – |
| Ac-PQ[MA]ILD[R7]HVRRVWR-NH2 (staple 3-7) [FP0727c] | – | 520 nM | 500 to 5000 nM | – |
| Ac-PQ[R6]ILD[MA]HVRRVWR-NH2 (staple 3-7) [FP0735c] | – | 1600 nM | 500 to 5000 nM | – |
| Ac-PQ[MA]ILD[R4]HVRRVWR-NH2 (staple 3-7) [FP0721c] | – | 1300 nM | 500 to 5000 nM | – |
| Ac-PQ[MA]ILD[R6]HVRRVWR-NH2 (staple 3-7, also called Az/R6) [FP0725c] | – | 80 nM | – | ≤ 100 nM |
| Ac-PQ[MA]ILD[S5]HVRRVWR-NH2 (staple 3-7) [FP0724c] | – | 540 nM | 500 to 5000 nM | – |
| Ac-PQ[R5]ILD[MA]HVRRVWR-NH2 (staple 3-7) [FP0733c] | – | 920 nM | 500 to 5000 nM | – |
| Ac-A[R8]ILDAHI[MB(4)]R[αMeV]W-NH2 (staple 2-9) [FP0632c] | 100 to 500 nM | – | – | – |
| Ac-PQ[R4″]ILD[MA]HVRRVWR-NH2 (staple 3-7) [FP0731c] | – | 4700 nM | 500 to 5000 nM | – |
| Ac-PQ[MA]ILD[S7]HVRRVWR-NH2 (staple 3-7) [FP0728c] | – | 2100 nM | 500 to 5000 nM | – |
| Ac-A[R8]I[αMeL]DAHI[MB(4)]RVW-NH2 (staple 2-9) [FP0644c] | 100 to 500 nM | – | – | – |
| Ac-PQ[MA]ILD[R5]HVRRVWR-NH2 (staple 3-7) [FP0723c] | – | 1400 nM | 500 to 5000 nM | – |
| Ac-A[Aib]ILDAHI[Aib]RVW-NH2 (SMILES CC[C@H](C)[C@H](NC(=O)[C@H](Cc1c[nH]cn1)NC(=O)[C@H](C)NC(=O)[C@H](CC(=O)O)NC(=O)[C@H](CC(C)C)NC(=O)[C@@H](NC(=O)C(C)(C)NC(=O)[C@H](C)NC(C)=O)[C@@H](C)CC)C(=O)NC(C)(C)C(=O)N[C@@H](CCCNC(=N)N)C(=O)N[C@H](C(=O)N[C@@H](Cc1c[nH]c2ccccc12)C(N)=O)C(C)C) [FP0628_aib] | 100 to 500 nM | – | – | – |

Results, then the binder that gave them:

| FP EC50 (full-length beta-catenin [1]) | EC50 (full-length beta-catenin [2]) | FP EC50 (full-length beta-catenin [3]) | FP EC50 (full-length beta-catenin [4]) | Binder |
| --- | --- | --- | --- | --- |
| – | 1300 nM | 500 to 5000 nM | – | Ac-PQ[MF]ILD[S5]HVRRVWR-NH2 (staple 3-7; also: carbamate staple (-N(R')-C(O)-O-) by ring-closing olefin metathesis) [FP0779c] |
| 100 to 500 nM | 110 nM | – | – | Ac-PQ[MC]ILD[R6]HVRRVWR-NH2 (staple 3-7) [FP0745c] |
| 100 to 500 nM | 115 nM | – | – | Ac-PQ[S7]ILD[MB(7)]HVRRVWR-NH2 (staple 3-7; reading uncertain, also called S7/PS) [FP0763c] |
| – | 890 nM | 500 to 5000 nM | – | Ac-PQ[S6]ILD[MA]HVRRVWR-NH2 (staple 3-7) [FP0736c] |
| – | 2000 nM | 500 to 5000 nM | – | Ac-PQ[MB(3)]ILD[S5]HVRRVWR-NH2 (staple 3-7) [FP0751c] |
| – | 570 nM | 500 to 5000 nM | – | Ac-PQ[R5]ILD[MG]HVRRVWR-NH2 (staple 3-7; also: carbamate staple (-N(R')-C(O)-O-) by ring-closing olefin metathesis) [FP0776c] |
| – | 20 nM | – | ≤ 100 nM | Ac-PQ[R5]ILD[MC]HVRRVWR-NH2 (staple 3-7, also called R5/PR) [FP0766c] |
| 100 to 500 nM | 460 nM | – | – | Ac-PQ[S6]ILD[MB(7)]HVRRVWR-NH2 (staple 3-7; reading uncertain) [FP0761c] |
| – | 560 nM | 500 to 5000 nM | – | Ac-PQ[R5]ILD[MI]HVRRVWR-NH2 (staple 3-7; also: carbamate staple (-N(R')-C(O)-O-) by ring-closing olefin metathesis) [FP0777c] |
| – | 740 nM | 500 to 5000 nM | – | Ac-PQ[MC]ILD[R5]HVRRVWR-NH2 (staple 3-7) [FP0743c] |
| – | 990 nM | 500 to 5000 nM | – | Ac-PQ[MI]ILD[R5]HVRRVWR-NH2 (staple 3-7; also: carbamate staple (-N(R')-C(O)-O-) by ring-closing olefin metathesis) [FP0783c] |
| – | 1700 nM | 500 to 5000 nM | – | Ac-PQ[MH]ILD[S5]HVRRVWR-NH2 (staple 3-7; also: carbamate staple (-N(R')-C(O)-O-) by ring-closing olefin metathesis) [FP0780c] |
| – | 1800 nM | 500 to 5000 nM | – | Ac-PQ[S7]ILD[MA]HVRRVWR-NH2 (staple 3-7) [FP0738c] |
| – | 1000 nM | 500 to 5000 nM | – | Ac-PQ[MD]ILD[S5]HVRRVWR-NH2 (staple 3-7; not fully specified; also: carbamate staple (-N(R')-C(O)-O-) by ring-closing olefin metathesis) [FP0778c] |
| 100 to 500 nM | 110 nM | – | – | Ac-PQ[R6]ILD[MC]HVRRVWR-NH2 (staple 3-7; also: carbamate staple (-N(R')-C(O)-O-) by ring-closing olefin metathesis, also called R6/PR) [FP0767c] |
| – | 30 nM | – | ≤ 100 nM | Ac-PQ[R4]ILD[MC]HVRRVWR-NH2 (staple 3-7, also called R4/PR) [FP0765c] |
| – | 2700 nM | 500 to 5000 nM | – | Ac-PQ[R5]ILD[MB(3)]HVRRVWR-NH2 (staple 3-7) [FP0758c] |
| – | 2600 nM | 500 to 5000 nM | – | Ac-PQ[MB(3)]ILD[S6]HVRRVWR-NH2 (staple 3-7) [FP0752c] |
